Data: US20130005646A1 (Novo Nordisk, published 2013)
Starred links: 1 amine or outer side, 2 acyl side, 3 side chain; linkers in the order of their positions; H or OH if unused. Positions of bridges follow the written chain, without caps; N, C: chain ends. Groups on a side chain read outwards from the residue. Primed or numbered codes have the meaning given here. No end group written: not given here. *: point of attachment. C18 diacid′ = 17-carboxyheptadecanoyl on γGlu amine: (S)-4-carboxy-4-(17-carboxyheptadecanoylamino)butyryl; C20 diacid = O=C(O)CCCCCCCCCCCCCCCCCCC(=O)*; C18 diacid = O=C(O)CCCCCCCCCCCCCCCCC(=O)*; γGlu = O=C(O)[C@H](CCC(=O)[*:2])N[*:1]; AEEA = NCCOCCOCC(=O)O

T1: human amylin 3(a) receptor (human calcitonin receptor + RAMP-3) (human, UniProt P30988 25-474; O60896 24-148)
T1 sequence (looked up) 1: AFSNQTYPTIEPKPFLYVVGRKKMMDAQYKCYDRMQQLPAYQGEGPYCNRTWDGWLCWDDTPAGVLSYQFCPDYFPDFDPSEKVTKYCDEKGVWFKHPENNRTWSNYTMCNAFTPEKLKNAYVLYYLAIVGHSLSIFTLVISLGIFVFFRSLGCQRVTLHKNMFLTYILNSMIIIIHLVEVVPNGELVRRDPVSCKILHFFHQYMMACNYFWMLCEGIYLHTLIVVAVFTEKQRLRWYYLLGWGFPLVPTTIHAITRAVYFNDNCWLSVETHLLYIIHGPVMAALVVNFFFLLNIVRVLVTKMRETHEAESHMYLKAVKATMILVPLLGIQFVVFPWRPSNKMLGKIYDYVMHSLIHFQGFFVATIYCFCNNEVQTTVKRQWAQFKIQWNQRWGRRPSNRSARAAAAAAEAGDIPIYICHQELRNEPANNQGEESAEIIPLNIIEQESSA
T1 sequence (looked up) 2: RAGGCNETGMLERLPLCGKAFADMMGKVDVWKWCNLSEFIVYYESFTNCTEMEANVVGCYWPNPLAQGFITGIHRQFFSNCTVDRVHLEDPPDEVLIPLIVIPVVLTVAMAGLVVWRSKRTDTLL

T2: human calcitonin (a) receptor (human, UniProt P30988 25-474)
T2 sequence (looked up): T1 sequence (looked up) 1

T3: rat amylin 3(a) receptor (rat calcitonin(a) receptor + rat RAMP3) (rat, UniProt P32214 25-516; Q9JJ73 23-147)
T3 sequence (looked up) 1: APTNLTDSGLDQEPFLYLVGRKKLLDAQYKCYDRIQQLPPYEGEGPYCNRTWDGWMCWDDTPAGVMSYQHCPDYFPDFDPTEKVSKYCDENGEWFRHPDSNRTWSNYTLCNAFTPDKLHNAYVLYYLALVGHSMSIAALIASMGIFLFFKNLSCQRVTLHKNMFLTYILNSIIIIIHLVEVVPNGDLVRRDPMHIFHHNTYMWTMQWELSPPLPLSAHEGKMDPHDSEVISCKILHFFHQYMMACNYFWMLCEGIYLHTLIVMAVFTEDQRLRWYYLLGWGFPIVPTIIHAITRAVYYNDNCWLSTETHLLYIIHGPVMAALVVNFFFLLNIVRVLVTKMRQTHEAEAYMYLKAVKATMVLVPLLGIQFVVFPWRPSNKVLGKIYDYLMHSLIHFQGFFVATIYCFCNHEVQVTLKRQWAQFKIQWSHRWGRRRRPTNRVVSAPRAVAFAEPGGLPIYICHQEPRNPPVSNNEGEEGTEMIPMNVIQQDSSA
T3 sequence (looked up) 2: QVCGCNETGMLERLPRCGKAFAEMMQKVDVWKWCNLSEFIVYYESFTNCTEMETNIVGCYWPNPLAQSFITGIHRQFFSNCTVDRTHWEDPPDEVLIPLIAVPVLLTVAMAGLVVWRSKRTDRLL

T4: rat calcitonin (a) receptor (rat, UniProt P32214 25-516)
T4 sequence (looked up): T3 sequence (looked up) 1

B1: N-epsilon25-[2-(2-{2-[2-(2-{2-[(S)-4-Carboxy-4-(17-carboxyheptadecanoylamino)butyrylamino]ethoxy}ethoxy)acetylamino]ethoxy}ethoxy)acetyl]-[Glu14,His17,Lys25]-pr … (peptide)
peptide: KCNTATCATQRLAEFLHHSSNNFGK([AEEA-AEEA-γGlu-C18 diacid])ILPPTNVGSNTY-NH2
modifications: disulfide 2-7; N-terminus assumed
SMILES: CC[C@H](C)[C@H](NC(=O)[C@H](CCCCNC(=O)COCCOCCNC(=O)COCCOCCNC(=O)CC[C@H](NC(=O)CCCCCCCCCCCCCCCCC(=O)O)C(=O)O)NC(=O)CNC(=O)[C@H](Cc1ccccc1)NC(=O)[C@H](CC(N)=O)NC(=O)[C@H](CC(N)=O)NC(=O)[C@H](CO)NC(=O)[C@H](CO)NC(=O)[C@H](Cc1c[nH]cn1)NC(=O)[C@H](Cc1c[nH]cn1)NC(=O)[C@H](CC(C)C)NC(=O)[C@H](Cc1ccccc1)NC(=O)[C@H](CCC(=O)O)NC(=O)[C@H](C)NC(=O)[C@H](CC(C)C)NC(=O)[C@H](CCCNC(=N)N)NC(=O)[C@H](CCC(N)=O)NC(=O)[C@@H](NC(=O)[C@H](C)NC(=O)[C@@H]1CSSC[C@H](NC(=O)[C@@H](N)CCCCN)C(=O)N[C@@H](CC(N)=O)C(=O)N[C@@H]([C@@H](C)O)C(=O)N[C@@H](C)C(=O)N[C@@H]([C@@H](C)O)C(=O)N1)[C@@H](C)O)C(=O)N[C@@H](CC(C)C)C(=O)N1CCC[C@H]1C(=O)N1CCC[C@H]1C(=O)N[C@H](C(=O)N[C@@H](CC(N)=O)C(=O)N[C@H](C(=O)NCC(=O)N[C@@H](CO)C(=O)N[C@@H](CC(N)=O)C(=O)N[C@H](C(=O)N[C@@H](Cc1ccc(O)cc1)C(N)=O)[C@@H](C)O)C(C)C)[C@@H](C)O
B2: N-alpha-[(S)-4-Carboxy-4-(17-carboxyheptadecanoylamino)butyryl]-[Glu14,Arg17,His35]-pramlintide (peptide)
peptide: {C18 diacid-γGlu}-KCNTATCATQRLAEFLRHSSNNFGPILPPTNVGSHTY-NH2
modifications: disulfide 2-7
SMILES: CC[C@H](C)[C@H](NC(=O)[C@@H]1CCCN1C(=O)CNC(=O)[C@H](Cc1ccccc1)NC(=O)[C@H](CC(N)=O)NC(=O)[C@H](CC(N)=O)NC(=O)[C@H](CO)NC(=O)[C@H](CO)NC(=O)[C@H](Cc1c[nH]cn1)NC(=O)[C@H](CCCNC(=N)N)NC(=O)[C@H](CC(C)C)NC(=O)[C@H](Cc1ccccc1)NC(=O)[C@H](CCC(=O)O)NC(=O)[C@H](C)NC(=O)[C@H](CC(C)C)NC(=O)[C@H](CCCNC(=N)N)NC(=O)[C@H](CCC(N)=O)NC(=O)[C@@H](NC(=O)[C@H](C)NC(=O)[C@@H]1CSSC[C@H](NC(=O)[C@H](CCCCN)NC(=O)CC[C@H](NC(=O)CCCCCCCCCCCCCCCCC(=O)O)C(=O)O)C(=O)N[C@@H](CC(N)=O)C(=O)N[C@@H]([C@@H](C)O)C(=O)N[C@@H](C)C(=O)N[C@@H]([C@@H](C)O)C(=O)N1)[C@@H](C)O)C(=O)N[C@@H](CC(C)C)C(=O)N1CCC[C@H]1C(=O)N1CCC[C@H]1C(=O)N[C@H](C(=O)N[C@@H](CC(N)=O)C(=O)N[C@H](C(=O)NCC(=O)N[C@@H](CO)C(=O)N[C@@H](Cc1c[nH]cn1)C(=O)N[C@H](C(=O)N[C@@H](Cc1ccc(O)cc1)C(N)=O)[C@@H](C)O)C(C)C)[C@@H](C)O
B3: N-alpha-[(S)-4-Carboxy-4-(19-carboxynonadecanoylamino)butyryl]-[Glu14,Arg17,Ala25,Pro26,Ser28,Ser29,His35]-pramlintide (peptide)
peptide: {C20 diacid-γGlu}-KCNTATCATQRLAEFLRHSSNNFGAPLSSTNVGSHTY-NH2
modifications: disulfide 2-7
SMILES: CC(C)C[C@H](NC(=O)[C@H](CCCNC(=N)N)NC(=O)[C@H](CCC(N)=O)NC(=O)[C@@H](NC(=O)[C@H](C)NC(=O)[C@@H]1CSSC[C@H](NC(=O)[C@H](CCCCN)NC(=O)CC[C@H](NC(=O)CCCCCCCCCCCCCCCCCCC(=O)O)C(=O)O)C(=O)N[C@@H](CC(N)=O)C(=O)N[C@@H]([C@@H](C)O)C(=O)N[C@@H](C)C(=O)N[C@@H]([C@@H](C)O)C(=O)N1)[C@@H](C)O)C(=O)N[C@@H](C)C(=O)N[C@@H](CCC(=O)O)C(=O)N[C@@H](Cc1ccccc1)C(=O)N[C@@H](CC(C)C)C(=O)N[C@@H](CCCNC(=N)N)C(=O)N[C@@H](Cc1c[nH]cn1)C(=O)N[C@@H](CO)C(=O)N[C@@H](CO)C(=O)N[C@@H](CC(N)=O)C(=O)N[C@@H](CC(N)=O)C(=O)N[C@@H](Cc1ccccc1)C(=O)NCC(=O)N[C@@H](C)C(=O)N1CCC[C@H]1C(=O)N[C@@H](CC(C)C)C(=O)N[C@@H](CO)C(=O)N[C@@H](CO)C(=O)N[C@H](C(=O)N[C@@H](CC(N)=O)C(=O)N[C@H](C(=O)NCC(=O)N[C@@H](CO)C(=O)N[C@@H](Cc1c[nH]cn1)C(=O)N[C@H](C(=O)N[C@@H](Cc1ccc(O)cc1)C(N)=O)[C@@H](C)O)C(C)C)[C@@H](C)O
B4: N-alpha-[(S)-4-Carboxy-4-(17-carboxyheptadecanoylamino)butyryl]-[Glu14,His17,His35]-pramlintide (peptide)
peptide: {C18 diacid-γGlu}-KCNTATCATQRLAEFLHHSSNNFGPILPPTNVGSHTY-NH2
modifications: disulfide 2-7; not fully specified; printed as N-alpha-[(S)-4-Carboxy-4-(17-carboxyheptadecanoylamino)butyryl]-[Glu14,His17,His35]-pramlintide
B5: N-alpha-[(S)-4-Carboxy-4-(19-carboxynonadecanoylamino)butyryl]-His-[Glu14,His17,His35]-pramlintide (peptide)
peptide: {C20 diacid-γGlu}-HKCNTATCATQRLAEFLHHSSNNFGPILPPTNVGSHTY-NH2
modifications: disulfide 3-8
SMILES: CC[C@H](C)[C@H](NC(=O)[C@@H]1CCCN1C(=O)CNC(=O)[C@H](Cc1ccccc1)NC(=O)[C@H](CC(N)=O)NC(=O)[C@H](CC(N)=O)NC(=O)[C@H](CO)NC(=O)[C@H](CO)NC(=O)[C@H](Cc1c[nH]cn1)NC(=O)[C@H](Cc1c[nH]cn1)NC(=O)[C@H](CC(C)C)NC(=O)[C@H](Cc1ccccc1)NC(=O)[C@H](CCC(=O)O)NC(=O)[C@H](C)NC(=O)[C@H](CC(C)C)NC(=O)[C@H](CCCNC(=N)N)NC(=O)[C@H](CCC(N)=O)NC(=O)[C@@H](NC(=O)[C@H](C)NC(=O)[C@@H]1CSSC[C@H](NC(=O)[C@H](CCCCN)NC(=O)[C@H](Cc2c[nH]cn2)NC(=O)CC[C@H](NC(=O)CCCCCCCCCCCCCCCCCCC(=O)O)C(=O)O)C(=O)N[C@@H](CC(N)=O)C(=O)N[C@@H]([C@@H](C)O)C(=O)N[C@@H](C)C(=O)N[C@@H]([C@@H](C)O)C(=O)N1)[C@@H](C)O)C(=O)N[C@@H](CC(C)C)C(=O)N1CCC[C@H]1C(=O)N1CCC[C@H]1C(=O)N[C@H](C(=O)N[C@@H](CC(N)=O)C(=O)N[C@H](C(=O)NCC(=O)N[C@@H](CO)C(=O)N[C@@H](Cc1c[nH]cn1)C(=O)N[C@H](C(=O)N[C@@H](Cc1ccc(O)cc1)C(N)=O)[C@@H](C)O)C(C)C)[C@@H](C)O

Molecular target: T1, human amylin 3(a) receptor (human …)
Assay: cell-based or functional assay

| Amylin receptor human EC50 [nM] | Binder |
| --- | --- |
| 0.0385 | B1 |
| 0.0675 | B2 |
| 0.217 | B3 |
| 0.172 | {C18 diacid′-γGlu}-EKCNTATCATQRLAEFLRHSSNNFGPILPPTNVGSHTY-NH2 (disulfide 3-8) [N-alpha-[(S)-4-Carboxy-4-(17-carboxyheptadecanoylamino)butyryl]-Glu-[Glu14,Arg17,His35]-pramlintide] |
| 0.056 | B4 |
| 0.182 | B5 |

Molecular target: T2, human calcitonin (a) receptor
Assay: cell-based or functional assay

| CTa receptor human EC50 [nM] | Binder |
| --- | --- |
| 0.045 | B1 |
| 0.335 | B2 |
| 0.342 | B3 |
| 1.07 | {C18 diacid′-γGlu}-EKCNTATCATQRLAEFLRHSSNNFGPILPPTNVGSHTY-NH2 (disulfide 3-8) [N-alpha-[(S)-4-Carboxy-4-(17-carboxyheptadecanoylamino)butyryl]-Glu-[Glu14,Arg17,His35]-pramlintide] |
| 0.0605 | B4 |
| 0.21 | B5 |

Molecular target: T3, rat amylin 3(a) receptor (rat …)
Assay: cell-based or functional assay

| Amylin receptor rat EC50 [nM] | Binder |
| --- | --- |
| 0.052 | B1 |
| 0.038 | B2 |
| 1.33 | B3 |
| 0.281 | {C18 diacid′-γGlu}-EKCNTATCATQRLAEFLRHSSNNFGPILPPTNVGSHTY-NH2 (disulfide 3-8) [N-alpha-[(S)-4-Carboxy-4-(17-carboxyheptadecanoylamino)butyryl]-Glu-[Glu14,Arg17,His35]-pramlintide] |
| 0.023 | B4 |
| 0.305 | B5 |

Molecular target: T4, rat calcitonin (a) receptor
Assay: cell-based or functional assay

| CTa receptor rat EC50 [nM] | Binder |
| --- | --- |
| 0.167 | B1 |
| 2.36 | B2 |
| 5.35 | B3 |
| 17.6 | {C18 diacid′-γGlu}-EKCNTATCATQRLAEFLRHSSNNFGPILPPTNVGSHTY-NH2 (disulfide 3-8) [N-alpha-[(S)-4-Carboxy-4-(17-carboxyheptadecanoylamino)butyryl]-Glu-[Glu14,Arg17,His35]-pramlintide] |
| 0.148 | B4 |
| 0.656 | B5 |
